Here are results for 6 molecules from patent US20240084031A1 (Seagen, published 2024).

Assay [1] has as its target T1, human FcγRI, full length on stably transfected CHO cells (human, UniProt P12314 16-374).
T1 construct: whole, on cells; also called CD64; Fcγ receptor I
Nature of the assay: cell-based competition binding, flow cytometry (LSRII): serial dilutions of unlabelled competitor against 50 nM Alexa Fluor 488-labelled h1F6 IgG1 on CHO cells expressing human FcγRI. As for the experimental part: (§1) Labeled cells were detected using an LSRII FACS analyzer.
(§2) Binding of humanized anti-CD70 (h1F6) antibody to CHO cells expressing full-length FcγRI was determined by competition binding. […] Labeled cells were detected using an LSRII FACS analyzer.
For orientation: A flow cytometer gives signals particle by particle.

In assay [2] the target is T2, human FcγRIIIa, 158V (high affinity), full length on stably transfected CHO cells (human, UniProt P08637 17-254).
T2 construct: whole, on cells; CHO DG44 line '158V'; also called CD16
T2 sequence (P08637 17-254 F176V): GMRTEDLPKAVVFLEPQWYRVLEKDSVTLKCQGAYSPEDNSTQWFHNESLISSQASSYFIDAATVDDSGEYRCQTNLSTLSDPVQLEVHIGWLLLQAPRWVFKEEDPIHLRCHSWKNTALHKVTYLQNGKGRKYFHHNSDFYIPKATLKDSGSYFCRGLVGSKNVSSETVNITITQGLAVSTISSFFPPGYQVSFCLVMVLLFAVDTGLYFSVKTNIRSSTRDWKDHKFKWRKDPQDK
Put plainly: cell-based competition binding, flow cytometry (LSRII): serial dilutions of unlabelled competitor against 100 nM Alexa Fluor 488-labelled h1F6 IgG1 on CHO cells expressing human FcγRIIIa 158V. How it is done: as §1
(§3) Binding of variant humanized anti-CD70 (h1F6) antibodies to CHO cells expressing full-length FcγRIIIa was also determined by competition binding. […] Labeled cells were detected using an LSRII FACS analyzer.

For assay [3], the target named is T3, human CD70 on CD70 positive cell lines (human, UniProt P32970 1-193).
T3 construct: whole, on cells
T3 sequence (looked up): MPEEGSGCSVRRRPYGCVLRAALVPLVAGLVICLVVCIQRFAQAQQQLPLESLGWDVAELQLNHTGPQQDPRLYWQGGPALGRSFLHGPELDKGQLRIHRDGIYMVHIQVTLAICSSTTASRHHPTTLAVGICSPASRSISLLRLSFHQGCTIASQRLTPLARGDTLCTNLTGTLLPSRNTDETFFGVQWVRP
Nature of the assay: 786-O cell binding, apparent KD of the IgG.

For assay [4], the target named is T4, mouse CD70 (the corresponding antigen from mice) (mouse, UniProt O55237 45-195, limits assumed).
T4 construct: Named only as 'the corresponding antigen from mice'
T4 sequence (looked up): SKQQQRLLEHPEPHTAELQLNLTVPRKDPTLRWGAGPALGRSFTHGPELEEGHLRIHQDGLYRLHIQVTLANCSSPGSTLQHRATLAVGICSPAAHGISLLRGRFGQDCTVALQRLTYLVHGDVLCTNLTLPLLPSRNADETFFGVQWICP
Nature of the assay: not described (statement in the example on maximum tolerated dose).

For assay [5], the target named is T3, human CD70 on CD70 positive cell lines. Put plainly: saturation binding of europium-labelled antibody to CD70+ ACHN cells (apparent KD). The text has this:
(§4) Humanized 1F6 antibody derivatives HDLA (hVHD and hVLA), HHLA (hVHH and hVLA), and HJLA (hVHJ and hVLA), and c1F6 were transiently expressed in 293 cells, labeled with europium using the Eu-N1 iodoacetamido chelate (Perkin Elmer), and analyzed for saturation binding to a panel of CD70 positive cell lines as described in detail in U.S. Patent Application No. 60/673,070, filed Apr. 19, 2005; and PCT International Publication No. WO 2006/113909.

Assay [6] shares this target. Put plainly: saturation binding of europium-labelled antibody to CD70+ 786-O cells (apparent KD).
Description: as §4

Assay [7] has the same target. Nature of the assay: saturation binding of europium-labelled antibody to CD70+ Caki-1 cells (apparent KD).
Description: as §4

The target is the same in assay [8]. Put plainly: saturation binding of europium-labelled antibody to CD70+ Caki-2 cells (apparent KD).
Description: as §4

Assay [9] has as its target T1, human FcγRI, full length on stably …. Nature of the assay: cell-based competition binding on CHO cells expressing full-length FcγRI, 'performed as described previously' (50 nM Alexa Fluor 488-labelled h1F6 IgG1). As for the experimental part: as §2
(§5) Binding of one of the variants, IgG1 S239C, to CHO cells expressing full-length FcγRIIIa and FcγRI was determined as described above. […] The control, parent antibody h1F6, binds to FcγRIIIa-expressing cells and FcγRI-expressing cells.

Assay [10] concerns the target T2, human FcγRIIIa, 158V (high affinity), …. Nature of the assay: cell-based competition binding on CHO cells expressing full-length FcγRIIIa, 'performed as described previously' (158V line, 100 nM Alexa Fluor 488-labelled h1F6 IgG1); the sheet says only FcγRIIIA. How it is done:
as §3, §5

In assay [11] the target is T3, human CD70 on CD70 positive cell lines. Nature of the assay: 786-O cell binding; IC50 of the vcF2 conjugate over IC50 of the unconjugated IgG.

T1 sequence (P12314 16-374): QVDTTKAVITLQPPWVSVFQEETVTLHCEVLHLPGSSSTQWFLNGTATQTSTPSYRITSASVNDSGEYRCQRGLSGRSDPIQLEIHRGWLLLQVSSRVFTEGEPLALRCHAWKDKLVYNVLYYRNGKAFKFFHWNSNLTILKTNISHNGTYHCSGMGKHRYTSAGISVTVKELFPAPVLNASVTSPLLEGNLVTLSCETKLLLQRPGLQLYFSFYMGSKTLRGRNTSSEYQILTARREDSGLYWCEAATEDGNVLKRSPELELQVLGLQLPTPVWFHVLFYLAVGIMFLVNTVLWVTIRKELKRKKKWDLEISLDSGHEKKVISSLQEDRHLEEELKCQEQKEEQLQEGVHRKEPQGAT

B1: h1F6 IgG1 vcMMAF(4) antibody drug conjugate (antibody)
heavy: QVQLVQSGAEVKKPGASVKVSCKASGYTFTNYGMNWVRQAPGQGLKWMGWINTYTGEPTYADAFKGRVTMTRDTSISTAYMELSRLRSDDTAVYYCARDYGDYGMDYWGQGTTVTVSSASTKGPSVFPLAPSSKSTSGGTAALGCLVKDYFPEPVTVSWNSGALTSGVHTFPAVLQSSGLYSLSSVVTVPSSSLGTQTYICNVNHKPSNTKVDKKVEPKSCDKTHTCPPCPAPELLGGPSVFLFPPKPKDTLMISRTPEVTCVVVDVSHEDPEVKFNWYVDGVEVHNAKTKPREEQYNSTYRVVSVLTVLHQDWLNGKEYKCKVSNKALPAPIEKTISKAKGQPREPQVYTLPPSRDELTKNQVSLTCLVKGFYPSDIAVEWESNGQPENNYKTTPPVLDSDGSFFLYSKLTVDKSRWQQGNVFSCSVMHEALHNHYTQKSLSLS
light: DIVMTQSPDSLAVSLGERATINCRASKSVSTSGYSFMHWYQQKPGQPPKLLIYLASNLESGVPDRFSGSGSGTDFTLTISSLQAEDVAVYYCQHSREVPWTFGQGTKVEIKRTVAAPSVFIFPPSDEQLKSGTASVVCLLNNFYPREAKVQWKVDNALQSGNSQESVTEQDSKDSTYSLSSTLTLSKADYEKHKVYACEVTHQGLSSPVTKSFNRGEC
modifications: vcMMAF conjugated, mean loading of 4 drugs/antibody; attachment residues not stated
notes: also called h1F6 G1-vcMMAF(4); IgG1-F4
In the case of B1, the binding result in [1] and in [2] was “binds” each time.

B2: humanized 1F6 antibody derivative HJLA (hVHJ and hVLA), human IgG1 (antibody)
heavy: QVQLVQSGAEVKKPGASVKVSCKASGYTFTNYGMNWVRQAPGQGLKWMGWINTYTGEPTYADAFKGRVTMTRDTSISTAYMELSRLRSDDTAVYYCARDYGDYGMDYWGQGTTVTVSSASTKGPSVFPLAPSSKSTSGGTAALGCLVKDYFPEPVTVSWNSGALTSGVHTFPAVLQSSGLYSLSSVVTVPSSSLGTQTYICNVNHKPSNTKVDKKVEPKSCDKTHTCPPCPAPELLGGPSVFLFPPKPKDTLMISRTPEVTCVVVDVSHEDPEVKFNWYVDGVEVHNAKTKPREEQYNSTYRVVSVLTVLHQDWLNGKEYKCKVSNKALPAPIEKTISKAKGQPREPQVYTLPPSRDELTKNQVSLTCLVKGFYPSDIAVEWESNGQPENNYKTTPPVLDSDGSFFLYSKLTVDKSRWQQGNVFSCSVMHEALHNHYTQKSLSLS
light: DIVMTQSPDSLAVSLGERATINCRASKSVSTSGYSFMHWYQQKPGQPPKLLIYLASNLESGVPDRFSGSGSGTDFTLTISSLQAEDVAVYYCQHSREVPWTFGQGTKVEIKRTVAAPSVFIFPPSDEQLKSGTASVVCLLNNFYPREAKVQWKVDNALQSGNSQESVTEQDSKDSTYSLSSTLTLSKADYEKHKVYACEVTHQGLSSPVTKSFNRGEC
notes: also called h1F6 HJLA; h1F6 IgG1
Regarding B2, the Kd in assay [3] was found to be 0.6 nM; in assay [5] it was 0.68 nM; in assay [6], 0.46 nM; in assay [7], 1.36 nM; in assay [8], 0.37 nM. In addition, the binding result in assay [4] is reported as “no binding”. The “IC50 (read off the curve)” value in assay [9] was around 6 nM; in assay [10], around 200 nM.

B3: h1F6 IgG4 vcMMAF(4) antibody drug conjugate (antibody)
heavy: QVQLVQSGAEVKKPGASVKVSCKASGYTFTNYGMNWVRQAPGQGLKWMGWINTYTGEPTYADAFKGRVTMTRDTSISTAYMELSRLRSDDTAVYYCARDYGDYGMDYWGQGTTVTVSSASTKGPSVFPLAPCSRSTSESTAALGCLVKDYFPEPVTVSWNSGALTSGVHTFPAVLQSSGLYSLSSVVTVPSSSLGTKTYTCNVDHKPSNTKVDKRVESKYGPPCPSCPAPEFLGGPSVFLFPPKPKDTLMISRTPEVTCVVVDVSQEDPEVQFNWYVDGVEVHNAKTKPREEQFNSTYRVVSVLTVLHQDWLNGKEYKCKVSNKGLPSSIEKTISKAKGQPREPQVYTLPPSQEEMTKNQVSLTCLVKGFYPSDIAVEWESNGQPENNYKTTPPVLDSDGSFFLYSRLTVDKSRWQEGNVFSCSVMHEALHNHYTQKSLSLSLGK
light: DIVMTQSPDSLAVSLGERATINCRASKSVSTSGYSFMHWYQQKPGQPPKLLIYLASNLESGVPDRFSGSGSGTDFTLTISSLQAEDVAVYYCQHSREVPWTFGQGTKVEIKRTVAAPSVFIFPPSDEQLKSGTASVVCLLNNFYPREAKVQWKVDNALQSGNSQESVTEQDSKDSTYSLSSTLTLSKADYEKHKVYACEVTHQGLSSPVTKSFNRGEC
modifications: vcMMAF conjugated, mean loading of 4 drugs/antibody; attachment residues not stated
notes: also called h1F6 G4-vcMMAF(4); IgG4-F4
With B3, in assay [1], the “IC50 (read off the curve)” value is around 10 nM.

B4: h1F6 IgG4 (IgG4 isotype variant of h1F6 HJLA) (antibody)
heavy: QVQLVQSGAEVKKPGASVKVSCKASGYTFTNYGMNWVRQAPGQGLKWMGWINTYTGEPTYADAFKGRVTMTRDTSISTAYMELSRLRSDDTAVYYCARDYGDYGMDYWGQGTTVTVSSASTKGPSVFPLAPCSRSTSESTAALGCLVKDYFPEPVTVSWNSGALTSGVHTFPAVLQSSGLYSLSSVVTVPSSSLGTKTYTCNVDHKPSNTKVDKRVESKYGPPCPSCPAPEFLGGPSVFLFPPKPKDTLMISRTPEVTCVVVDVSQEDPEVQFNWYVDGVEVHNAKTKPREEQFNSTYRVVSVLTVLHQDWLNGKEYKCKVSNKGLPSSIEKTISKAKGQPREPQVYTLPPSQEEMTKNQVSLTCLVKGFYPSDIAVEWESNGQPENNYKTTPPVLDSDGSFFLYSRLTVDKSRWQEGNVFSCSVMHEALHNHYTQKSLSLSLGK
light: DIVMTQSPDSLAVSLGERATINCRASKSVSTSGYSFMHWYQQKPGQPPKLLIYLASNLESGVPDRFSGSGSGTDFTLTISSLQAEDVAVYYCQHSREVPWTFGQGTKVEIKRTVAAPSVFIFPPSDEQLKSGTASVVCLLNNFYPREAKVQWKVDNALQSGNSQESVTEQDSKDSTYSLSSTLTLSKADYEKHKVYACEVTHQGLSSPVTKSFNRGEC
notes: also called h1F6 G4
Turning to B4, in [1], the “IC50 (read off the curve)” value was around 30 nM.

B5: h1F6 IgG1 S239C (antibody)
heavy: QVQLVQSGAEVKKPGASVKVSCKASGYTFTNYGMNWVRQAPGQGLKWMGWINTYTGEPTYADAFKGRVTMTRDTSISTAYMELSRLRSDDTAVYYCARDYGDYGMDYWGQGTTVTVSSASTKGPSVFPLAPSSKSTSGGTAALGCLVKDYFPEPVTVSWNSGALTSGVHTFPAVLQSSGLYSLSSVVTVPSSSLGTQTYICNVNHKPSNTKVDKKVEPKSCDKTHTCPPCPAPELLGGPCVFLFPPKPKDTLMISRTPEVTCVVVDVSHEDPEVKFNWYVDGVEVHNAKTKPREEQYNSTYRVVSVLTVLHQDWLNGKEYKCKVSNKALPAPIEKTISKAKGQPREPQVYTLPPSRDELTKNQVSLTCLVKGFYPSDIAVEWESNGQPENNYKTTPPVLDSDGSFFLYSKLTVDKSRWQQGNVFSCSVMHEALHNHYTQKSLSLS
light: DIVMTQSPDSLAVSLGERATINCRASKSVSTSGYSFMHWYQQKPGQPPKLLIYLASNLESGVPDRFSGSGSGTDFTLTISSLQAEDVAVYYCQHSREVPWTFGQGTKVEIKRTVAAPSVFIFPPSDEQLKSGTASVVCLLNNFYPREAKVQWKVDNALQSGNSQESVTEQDSKDSTYSLSSTLTLSKADYEKHKVYACEVTHQGLSSPVTKSFNRGEC
On to B5, for which, in [3], the Kd amounted to 1 nM. For the same molecule, the “IC50 (read off the curve)” value in assay [9] was around 10 nM. The binding result in assay [10] is recorded as “binds”.

B6: h1F6 IgG1 S239C conjugated to vcMMAF (average of 2 drugs/antibody) (antibody)
heavy: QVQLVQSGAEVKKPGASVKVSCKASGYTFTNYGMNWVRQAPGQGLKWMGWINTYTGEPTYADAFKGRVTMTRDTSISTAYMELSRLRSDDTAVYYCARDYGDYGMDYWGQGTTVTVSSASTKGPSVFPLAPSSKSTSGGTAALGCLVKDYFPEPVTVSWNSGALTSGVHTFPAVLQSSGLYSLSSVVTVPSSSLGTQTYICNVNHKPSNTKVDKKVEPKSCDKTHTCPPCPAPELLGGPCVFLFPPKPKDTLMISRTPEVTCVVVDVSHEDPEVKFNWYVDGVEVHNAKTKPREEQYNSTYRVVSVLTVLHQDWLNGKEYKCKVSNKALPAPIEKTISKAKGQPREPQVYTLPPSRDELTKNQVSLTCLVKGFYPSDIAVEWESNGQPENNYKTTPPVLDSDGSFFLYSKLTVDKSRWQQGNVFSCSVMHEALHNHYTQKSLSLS
light: DIVMTQSPDSLAVSLGERATINCRASKSVSTSGYSFMHWYQQKPGQPPKLLIYLASNLESGVPDRFSGSGSGTDFTLTISSLQAEDVAVYYCQHSREVPWTFGQGTKVEIKRTVAAPSVFIFPPSDEQLKSGTASVVCLLNNFYPREAKVQWKVDNALQSGNSQESVTEQDSKDSTYSLSSTLTLSKADYEKHKVYACEVTHQGLSSPVTKSFNRGEC
modifications: vcMMAF conjugated, average of 2 drugs/antibody; attachment residues not stated for the material tested
notes: also called IgG1 S239C vcMMAF; IgG1 S239C IgG-vcF2
B6: the “IC50 IgG-vcF2 / IC50 IgG” value in assay [11] stood at 1.1 ratio. The “IC50 (read off the curve)” value in [9] is around 8 nM. In assay [10], the binding result is “binds”.
